Positions of bridges follow the written chain, without caps; N, C: chain ends. No end group written: not given here.

Sequences and labels used below:
B1: RB-B3 (peptide)
peptide: QSYMEDICLPRWGCLSDDAS
modifications: not fully specified (bridges); cysteine pairing not given here; also: phage-displayed
notes: on phage
B2: SA18 (peptide)
peptide: ICLPRWGCLW-NH2
modifications: not fully specified (bridges); printed as ICLPRWGCLWNH2; cysteine pairing not given here
notes: free peptide
B3: SA24 (peptide)
peptide: Ac-IEDICLPRWGCLWED-NH2
modifications: not fully specified (bridges); printed as Ac IEDICLPRWGCLWEDNH2; cysteine pairing not given here
notes: free peptide
B4: SA23 (peptide)
peptide: Ac-LIEDICLPRWGCLWED-NH2
modifications: not fully specified (bridges); printed as Ac LIEDICLPRWGCLWEDNH2; cysteine pairing not given here
notes: free peptide
B5: SA20 (peptide)
peptide: Ac-QRLIEDICLPRWGCLWEDDF-NH2
modifications: not fully specified (bridges); printed as Ac QRLIEDICLPRWGCLWEDDF NH2; cysteine pairing not given here
notes: free peptide
B6: SA25 (peptide)
peptide: Ac-EDICLPRWGCLWED-NH2
modifications: not fully specified (bridges); printed as Ac EDICLPRWGCLWEDNH2; cysteine pairing not given here
notes: free peptide
B7: SA22 (peptide)
peptide: Ac-RLIEDICLPRWGCLWED-NH2
modifications: not fully specified (bridges); printed as Ac RLIEDICLPRWGCLWEDNH2; cysteine pairing not given here
notes: free peptide
B8: SA19 (peptide)
peptide: DICLPRWGCL-NH2
modifications: not fully specified (bridges); printed as DICLPRWGCLNH2; cysteine pairing not given here
notes: free peptide

In the first experiment the target is T1, rabbit serum albumin (rabbit, UniProt P49065 25-608).
T1 construct: also called Rabbit SA; BuSA
T1 sequence (P49065 25-608 limits assumed): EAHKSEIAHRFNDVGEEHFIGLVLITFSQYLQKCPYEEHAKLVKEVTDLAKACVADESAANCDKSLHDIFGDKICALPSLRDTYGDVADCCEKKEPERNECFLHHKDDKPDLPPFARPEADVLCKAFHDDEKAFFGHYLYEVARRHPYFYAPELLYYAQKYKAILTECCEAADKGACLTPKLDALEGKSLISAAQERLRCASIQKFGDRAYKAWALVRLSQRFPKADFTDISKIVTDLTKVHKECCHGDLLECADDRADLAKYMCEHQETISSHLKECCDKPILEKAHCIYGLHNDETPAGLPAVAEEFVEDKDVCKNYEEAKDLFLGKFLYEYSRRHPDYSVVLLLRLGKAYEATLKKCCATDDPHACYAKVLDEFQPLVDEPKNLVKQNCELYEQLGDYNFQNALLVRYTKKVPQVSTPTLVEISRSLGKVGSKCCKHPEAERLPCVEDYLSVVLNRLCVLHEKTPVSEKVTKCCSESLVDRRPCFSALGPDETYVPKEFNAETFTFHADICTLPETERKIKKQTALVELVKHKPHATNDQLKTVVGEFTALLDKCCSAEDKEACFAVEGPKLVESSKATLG
The experiment in a line: phage binding.
Consider QGDFWDICLPRWGCLSGEGY (on phage) [RB-B10], for which the binding result is “binds”.
Turning to LRIFEDICLPKWGCLWGEGF (on phage) [RB-B14], the binding result is recorded as “binds”.
Same read-out and setting: with GENWCDWVLLAYDLCGEDNT (on phage) [BA-B37] the entry was “binds”; with B1, “binds”; with GEDWCDSTLLAFDLCGEGAR (on phage) [BA-B44], “binds”.
Turning to QMHMMDICLPKWGCLWGDTS (not fully specified (bridges); cysteine pairing not given here, on phage) [RB-B9], the binding result is “binds”.
As for MELWCDSTLMAYDLCGDFNM (on phage) [BA-B39], the binding result was “binds”.

Another experiment deals with T2, rat serum albumin (rat, UniProt P02770 25-608).
T2 construct: also called Rat SA; RSA
T2 sequence (P02770 25-608 limits assumed): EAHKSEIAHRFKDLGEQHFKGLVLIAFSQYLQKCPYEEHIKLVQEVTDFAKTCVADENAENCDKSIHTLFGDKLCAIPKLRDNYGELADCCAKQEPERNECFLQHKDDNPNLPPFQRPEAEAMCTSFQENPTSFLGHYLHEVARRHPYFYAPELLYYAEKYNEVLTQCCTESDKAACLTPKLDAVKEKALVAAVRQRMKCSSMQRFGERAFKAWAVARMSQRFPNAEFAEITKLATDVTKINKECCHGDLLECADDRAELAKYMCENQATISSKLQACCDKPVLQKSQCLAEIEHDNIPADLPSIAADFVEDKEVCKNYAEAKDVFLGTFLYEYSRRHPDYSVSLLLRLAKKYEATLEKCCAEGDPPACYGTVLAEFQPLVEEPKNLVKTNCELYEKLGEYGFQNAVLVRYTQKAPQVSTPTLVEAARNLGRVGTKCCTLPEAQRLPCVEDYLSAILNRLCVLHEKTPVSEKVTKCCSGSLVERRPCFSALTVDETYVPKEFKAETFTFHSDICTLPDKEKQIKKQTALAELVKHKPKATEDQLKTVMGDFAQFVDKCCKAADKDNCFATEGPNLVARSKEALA
The experiment can be described thus: phage binding.
As for DTCSDLVGLGLECWA (on phage) [RD-R1], the binding result is on record as “binds”.
As for QGDFWDICLPRWGCLSGEGY (on phage) [RB-B10], the binding result is recorded as “binds”.
For the molecule DFDLCLPDWGCLWDD (on phage) [RBC-R10], the binding result is “binds”.
Same read-out and setting: the value for EEDLCLPVWGCLWGA (on phage) [RBC-R14] was “binds”; that for EFDLCLPTWGCLWED (on phage) [RBC-R13] was “binds”; that for EWDVCFPAWGCLWDQ (on phage) [RBC-R18] was “binds”.
For the molecule DTCDDLVQLGLECWA (on phage) [RD-R11], the binding result was “binds”.
On the same count and under the same terms, the value for MFDLCLPKWGCLWGN (not fully specified (bridges); cysteine pairing not given here, on phage) [RBC-R12] was “binds”.
Consider DICLPRWGCLW (on phage) [RC-R13], for which the binding result is “binds”.
Still for that read-out and setting: the value for DICLPVWGCLW (on phage; also called RC-R2; RC-R3) [RC-R1] was “binds”; that for WDDICFRDWGCLWGS (on phage) [RBC-R7] was “binds”.
With FEDLCVVRWGCLWGD (not fully specified (bridges); cysteine pairing not given here, on phage) [RBC-R6], the binding result was “binds”.
Same read-out and setting: with LRIFEDICLPKWGCLWGEGF (on phage) [RB-B14] the entry was “binds”.
For FEDFCLPNWGCLWGS (on phage) [RBC-R4], the binding result was “binds”.
On the same count and under the same terms, with WEDLCLPDWGCLWED (not fully specified (bridges); cysteine pairing not given here, on phage) [RBC-R5] the entry was “binds”; with EEDVCLPVWGCLWEG (on phage) [RBC-R20], “binds”.
The same measure, in the same setting: the value for VWDLCLPQWGCLWDE (on phage) [RBC-R11] was “binds”; that for DSCGDLLRLGLECWA (on phage) [RD-R6] was “binds”.
On the same count and under the same terms, with QGGMGDFCLPQWGCLWGEDL (on phage) [RB-R17] the entry was “binds”; with MWDVCFPDWGCLWDV (not fully specified (bridges); cysteine pairing not given here, on phage) [RBC-R15], “binds”; with EWDVCLPHWGCLWDG (on phage) [RBC-R16], “binds”.
Turning to B1, the binding result is “binds”.
The same measure, in the same setting: with MDDLCLPNWGCLWGD (not fully specified (bridges); cysteine pairing not given here, on phage) [RBC-R2] the entry was “binds”; with DTCADLVRLGLECWA (on phage) [RD-R2], “binds”; with NTCADLVRLGLECWA (on phage) [RD-R7], “binds”.
Same read-out and setting: the value for DTCEDLVRLGLECWA (on phage) [RD-R5] was “binds”; that for MDDICLHHWGCLWDE (on phage) [RBC-R1] was “binds”.
Still for that read-out and setting: with QMHMMDICLPKWGCLWGDTS (not fully specified (bridges); cysteine pairing not given here, on phage) [RB-B9] the entry was “binds”; with SEDFCLPVWGCLWED (not fully specified (bridges); cysteine pairing not given here, on phage) [RBC-R9], “binds”; with NWDLCFPDWGCLWDD (on phage) [RBC-R8], “binds”.

Another experiment addresses T1, rabbit serum albumin. The experiment can be described thus: peptide competition; head prints RSA, read as rabbit.
A word on the IC50: it is the concentration that gives 50% inhibition. Turning to Ac-RLIEDICLPRWGCLWE-NH2 (disulfide 7-13 (inferred), free peptide) [SA29], the IC50 is 400 nM.
B2 gave a concentration for half-maximal inhibition (IC50) of 125000 nM.
The same measure, in the same setting: with Ac-DICLPRWGCLWED-NH2 (disulfide 3-9 (inferred), free peptide) [SA26] the figure was 3120 nM; with Ac-IEDICLPRWGCLWE-NH2 (disulfide 5-11 (inferred), free peptide) [SA30], 1800 nM; with B3, 1380 nM.
The molecule Ac-RLIEDICLPRWGCLW-NH2 (disulfide 7-13 (inferred), free peptide) [SA31] displayed an IC50 of 200 nM.
Turning to B4, the IC50 worked out at 360 nM.
In the case of Ac-RLIEDICLPRWGCL-NH2 (disulfide 7-13 (inferred), free peptide) [SA33], the IC50 turned out to be 4310 nM.
Still for that read-out and setting: the value for B5 was 260 nM; that for Ac-EDICLPRWGCLW-NH2 (disulfide 4-10 (inferred), free peptide) [SA32] was 2170 nM.
B6 had an IC50 of 2730 nM.
Take B7: the IC50 is 430 nM.
Still for that read-out and setting: with Ac-ICLPRWGCLWED-NH2 (disulfide 2-8 (inferred), free peptide) [SA27] the figure was 86700 nM; with B8, 24500 nM; with Ac-DICLPRWGCL-NH2 (disulfide 3-9 (inferred), free peptide) [SA34], 28200 nM.

(Values after US20060073152A1 (Genentech, published 2006).)
